Source: article doi:10.1101/2022.04.27.489743 (bioRxiv, 2022)

Experiments:
Assay in all cases: ITC
AnkG R6-16 = AnkG R6-16 (UniProt O70511)
[1] = biological target: T1, AnkG ANK repeats (R1-24, residues 38-855) (UniProt O70511 38-855)
T1 sequence: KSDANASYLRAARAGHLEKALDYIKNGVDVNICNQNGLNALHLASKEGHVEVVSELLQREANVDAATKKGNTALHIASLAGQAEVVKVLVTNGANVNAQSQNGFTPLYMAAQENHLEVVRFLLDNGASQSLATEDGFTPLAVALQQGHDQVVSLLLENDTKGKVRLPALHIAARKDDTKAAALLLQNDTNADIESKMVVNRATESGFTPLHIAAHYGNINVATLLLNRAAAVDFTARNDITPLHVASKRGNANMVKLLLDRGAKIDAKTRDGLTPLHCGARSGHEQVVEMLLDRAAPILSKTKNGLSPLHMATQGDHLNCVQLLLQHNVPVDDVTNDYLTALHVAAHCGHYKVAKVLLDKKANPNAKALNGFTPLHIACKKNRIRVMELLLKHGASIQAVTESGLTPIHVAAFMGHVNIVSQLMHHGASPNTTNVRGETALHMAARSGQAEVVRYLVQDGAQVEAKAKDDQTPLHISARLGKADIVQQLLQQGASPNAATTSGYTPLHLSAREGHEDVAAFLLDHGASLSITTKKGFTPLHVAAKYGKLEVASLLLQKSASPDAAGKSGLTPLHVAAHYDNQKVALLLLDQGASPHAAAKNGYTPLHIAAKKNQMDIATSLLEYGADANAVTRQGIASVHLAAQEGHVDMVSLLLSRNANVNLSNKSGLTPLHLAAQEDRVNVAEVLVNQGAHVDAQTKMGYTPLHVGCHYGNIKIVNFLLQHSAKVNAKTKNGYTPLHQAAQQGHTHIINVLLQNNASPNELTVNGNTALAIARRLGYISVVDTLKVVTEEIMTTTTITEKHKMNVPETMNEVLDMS

[2] = biological target: T2, AnkG 275-571 (AnkG R8-16) (UniProt O70511 275-571)
T2 sequence: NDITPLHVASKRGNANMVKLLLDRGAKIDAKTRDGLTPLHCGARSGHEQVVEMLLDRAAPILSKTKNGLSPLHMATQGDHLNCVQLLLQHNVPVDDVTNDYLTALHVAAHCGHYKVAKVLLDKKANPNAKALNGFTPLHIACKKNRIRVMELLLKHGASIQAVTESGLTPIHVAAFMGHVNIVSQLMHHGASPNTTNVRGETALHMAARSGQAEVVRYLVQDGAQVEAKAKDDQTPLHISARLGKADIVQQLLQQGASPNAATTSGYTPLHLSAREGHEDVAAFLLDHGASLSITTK

Chain of AnkG R6-16 (O70511 whole entry, the tested form may be a part): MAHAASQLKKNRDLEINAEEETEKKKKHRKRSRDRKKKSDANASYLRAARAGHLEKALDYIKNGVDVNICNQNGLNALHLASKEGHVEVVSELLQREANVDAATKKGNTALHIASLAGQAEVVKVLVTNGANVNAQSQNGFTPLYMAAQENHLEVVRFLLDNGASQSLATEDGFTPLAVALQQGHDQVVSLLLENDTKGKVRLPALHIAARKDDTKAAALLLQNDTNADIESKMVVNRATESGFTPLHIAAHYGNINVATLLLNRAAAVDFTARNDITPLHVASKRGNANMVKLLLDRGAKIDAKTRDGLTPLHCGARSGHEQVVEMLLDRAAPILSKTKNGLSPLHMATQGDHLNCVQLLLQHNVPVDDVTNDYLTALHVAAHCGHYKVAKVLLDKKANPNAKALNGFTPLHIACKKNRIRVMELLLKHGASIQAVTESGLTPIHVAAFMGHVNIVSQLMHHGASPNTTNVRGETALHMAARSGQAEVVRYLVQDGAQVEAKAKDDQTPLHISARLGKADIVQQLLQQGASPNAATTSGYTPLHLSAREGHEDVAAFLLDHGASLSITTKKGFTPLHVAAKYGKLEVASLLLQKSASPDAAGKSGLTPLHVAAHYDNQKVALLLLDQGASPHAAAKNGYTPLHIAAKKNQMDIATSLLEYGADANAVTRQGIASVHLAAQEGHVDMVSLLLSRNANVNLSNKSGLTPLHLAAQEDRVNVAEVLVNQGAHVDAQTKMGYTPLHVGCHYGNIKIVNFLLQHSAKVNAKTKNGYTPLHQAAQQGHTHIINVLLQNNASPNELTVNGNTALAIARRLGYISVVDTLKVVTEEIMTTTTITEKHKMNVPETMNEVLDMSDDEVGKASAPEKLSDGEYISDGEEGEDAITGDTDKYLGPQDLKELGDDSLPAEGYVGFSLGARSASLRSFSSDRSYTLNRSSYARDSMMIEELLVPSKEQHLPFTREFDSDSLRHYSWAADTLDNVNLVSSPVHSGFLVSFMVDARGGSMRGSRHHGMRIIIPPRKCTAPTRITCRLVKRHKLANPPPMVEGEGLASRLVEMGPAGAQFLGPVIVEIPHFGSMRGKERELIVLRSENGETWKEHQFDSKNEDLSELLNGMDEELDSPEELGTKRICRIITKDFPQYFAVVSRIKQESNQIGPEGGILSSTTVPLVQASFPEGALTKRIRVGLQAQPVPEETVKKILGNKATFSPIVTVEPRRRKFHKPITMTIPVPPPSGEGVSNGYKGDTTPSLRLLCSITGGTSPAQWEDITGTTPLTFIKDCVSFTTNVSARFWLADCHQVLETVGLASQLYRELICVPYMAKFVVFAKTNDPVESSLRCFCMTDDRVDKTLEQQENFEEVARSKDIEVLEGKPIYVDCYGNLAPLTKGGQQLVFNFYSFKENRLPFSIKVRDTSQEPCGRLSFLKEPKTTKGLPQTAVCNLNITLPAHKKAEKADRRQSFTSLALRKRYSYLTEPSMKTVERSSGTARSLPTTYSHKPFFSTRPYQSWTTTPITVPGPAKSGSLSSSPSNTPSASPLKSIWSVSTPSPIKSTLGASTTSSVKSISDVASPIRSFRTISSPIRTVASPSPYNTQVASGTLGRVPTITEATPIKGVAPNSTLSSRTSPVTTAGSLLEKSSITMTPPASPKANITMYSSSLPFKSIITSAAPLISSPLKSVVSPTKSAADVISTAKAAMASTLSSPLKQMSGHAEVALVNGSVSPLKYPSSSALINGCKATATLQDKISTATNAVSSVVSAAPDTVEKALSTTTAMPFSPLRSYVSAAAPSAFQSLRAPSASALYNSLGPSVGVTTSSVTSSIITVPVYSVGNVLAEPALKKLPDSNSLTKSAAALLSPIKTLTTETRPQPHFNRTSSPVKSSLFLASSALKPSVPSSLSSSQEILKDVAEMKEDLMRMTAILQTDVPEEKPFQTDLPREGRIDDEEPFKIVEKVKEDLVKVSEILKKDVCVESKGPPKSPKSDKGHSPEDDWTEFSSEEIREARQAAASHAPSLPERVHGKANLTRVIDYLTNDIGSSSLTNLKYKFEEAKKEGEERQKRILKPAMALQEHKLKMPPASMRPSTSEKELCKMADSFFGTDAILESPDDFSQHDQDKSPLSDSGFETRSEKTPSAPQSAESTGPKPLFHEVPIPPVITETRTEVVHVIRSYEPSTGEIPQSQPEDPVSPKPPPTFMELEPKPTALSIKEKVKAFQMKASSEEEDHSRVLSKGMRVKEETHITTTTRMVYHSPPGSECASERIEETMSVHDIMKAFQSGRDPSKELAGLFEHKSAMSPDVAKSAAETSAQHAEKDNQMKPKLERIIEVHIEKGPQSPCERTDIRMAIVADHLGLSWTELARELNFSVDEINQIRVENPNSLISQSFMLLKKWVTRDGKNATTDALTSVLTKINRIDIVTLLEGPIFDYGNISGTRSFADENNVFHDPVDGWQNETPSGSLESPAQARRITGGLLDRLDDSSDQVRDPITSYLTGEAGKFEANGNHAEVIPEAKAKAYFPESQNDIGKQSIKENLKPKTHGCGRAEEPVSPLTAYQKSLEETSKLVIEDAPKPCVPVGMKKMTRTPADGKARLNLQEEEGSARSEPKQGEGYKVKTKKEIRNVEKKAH

In the case of “Nfasc ankyrin binding domain (ABD), residues 1187-1214 (from UniProt P97685 1187-1214) (domain or fragment)”, the Kd (AnkG R6-16) is reported as 290 nM.

For GEGQFNADGSFIGQYTV [Nfasc 1198-1214 E1204A], the “fold decrease in binding affinity against Nfasc 1198-1214 WT” value [1] was ~27 fold.

GEGQFNEDGSFIGQETV [Nfasc 1198-1214 Y1212E] was tested, and the “fold decrease in binding against Nfasc 1198-1214 WT” value [1] was ~9 fold.

In the case of GEGQQNEDGSFIGQYTV [Nfasc 1198-1214 F1202Q], the “fold decrease in binding against Nfasc 1198-1214 WT” value [1] is reported as > 20 fold.

Work on SDDSLVDYGEGGEGQFNEDGSFIGQYTV (domain or fragment) [Nfasc ankyrin binding domain (ABD), residues 1187-1214] yielded a Kd [1] of ~220 nM and a Kd [2] of ~1200 nM.
